# Measured values from patent publication US20230137139A1, “BIOSYNTHESIS OF CANNABINOIDS AND C[…]” (priority 2020, published 2023).
# Key:
# [1] = tested on: CBCA, THCA, and CBDA production; test: In vivo TS activity assay, Example 2 protein engineering of A. niger CBCAS, cultures fed olivetolic acid; assay type: cell-based, S. cerevisiae; conditions: for average CBCA titer compared with the A. niger positive control / Mean CBCA / Mean CBDA / Mean THCA: secondary screen; for Mean CBCA / Mean CBDA / Mean THCA: olivetolic acid (Table 8); for % CBCA / % CBDA / % THCA: share of terminal cannabinoid product profile
# Method: (§1) An assay to detect TS activity was conducted as follows: each thawed glycerol stock of candidate CBCAS transformants was stamped into a well of YEP+4% dextrose media. Samples were incubated at 30° C. in a shaking incubator for 2 days. A portion of each of the resulting cultures was stamped into a well of YEP+4% galactose+1 mM olivetolic acid (FIG. 1 Structure 6a). Samples were incubated at 20° C. and shaken in a shaking incubator for 4 days. Every 24 hours during those 4 days, 2% galactose and 1 mM olivetolic acid were spiked into the cultures. Sodium citrate buffer adjusted to pH 5.5 was added to each well at a final concentration of 100 mM. Samples were incubated at 20° C. and shaken in a shaking incubator for 2 days. A portion of each of the resulting production cultures was stamped into a well of phosphate buffered saline (PBS). Optical measurements were taken on a plate reader, with absorbance measured at 600 nm and fluorescence at 528 nm with 485 nm excitation. Samples were incubated at 30° C. in a shaking incubator for 2 days. 100% methanol was stamped into the production cultures in half-height deepwell plates. Plates were heat sealed and frozen. Samples were then thawed for 30 min and spun down at 4° C. A portion of the supernatant was stamped into half-area 96 well plates. CBCA, THCA, and CBDA production in the samples was quantified via liquid chromatography-mass spectrometry (LC-MS).
# (§2) To determine whether engineering of the A. niger CBCAS identified in Example 1 (corresponding to SEQ ID NO: 29 (with signal peptides); SEQ ID NO: 27 (without signal peptides and including an N-terminal methionine (UniProt accession No. A0A254UC34)); or SEQ ID NO: 25 (without signal peptides and without the N-terminal methionine)), could alter CBCAS substrate specificity, product specificity and/or amounts of products produced, point mutations were generated in A. niger CBCAS and the mutant versions of the protein were expressed in S. cerevisiae. A library containing 1047 A. niger CBCAS mutants was generated and screened. As in Example 1, each CBCAS mutant in the library, as well as the enzymes expressed by positive control strains, included an N-terminal MFalpha2 signal peptide (SEQ ID NO: 16) (with a methionine residue added at the N-terminus of the MFalpha2 signal peptide) and a C-terminal HDEL signal peptide (SEQ ID NO: 17).
# Production of compounds of Formulae (9), (10), and/or (11), including compounds of Formulae (9a), (10a), and/or (11a) by strains expressing the mutated versions of A. niger CBCAS was quantified and compared to the production of the same compounds by a strain expressing wild-type A. niger CBCAS, a strain expressing a C. sativa THCAS, and a strain expressing a C. sativa CBDAS. The strains were screened using the same assay described in Example 1. Production of CBCA, THCA, and/or CBDA in the samples was quantified via LC-MS.
# (§3) Of the original 1047 library members, 55 strains were elevated to a secondary screen to verify CBCA production. The experimental protocol for the secondary screen was identical to the primary screen, except that additional biological replicates were included per strain, and replicate production cultures for each strain were separately fed 1 mM boluses of olivetolic acid or 1 mM boluses of divaric acid. All strains were screened in quadruplicate.
# [2] = tested on: CBCVA, THCVA, and CBDVA production; test: In vivo TS activity assay, Example 2 protein engineering of A. niger CBCAS, cultures fed divaric acid; assay type: cell-based, S. cerevisiae; conditions: for Mean CBCVA / Mean CBDVA / Mean THCVA: S. cerevisiae strains expressing A. niger CBCAS mutants; for Mean CBCVA / Mean CBDVA / Mean THCVA / average CBCVA titer compared with the A. niger positive control: secondary screen; for Mean CBCVA / Mean CBDVA / Mean THCVA / % CBCVA / % CBDVA / % THCVA: fed divaric acid; for % CBCVA / % CBDVA / % THCVA: share of terminal cannabinoid product profile
# Method: as §1, §2, §3
Molecule,average CBCA titer compared with the A. niger positive control [1],Mean CBCA [1] [µg/L],Mean CBDA [1] [µg/L],Mean THCA [1] [µg/L],% CBCA [1] [%],% CBDA [1] [%],% THCA [1] [%],Mean CBCVA [2] [µg/L],Mean CBDVA [2] [µg/L],Mean THCVA [2] [µg/L],average CBCVA titer compared with the A. niger positive control [2],% CBCVA [2] [%],% CBDVA [2] [%],% THCVA [2] [%]
t865743 (protein) MGNTTSIAGRDCLISALGGNSALAVFPNELLWTADVHEYNLNLPVTPAAITYPETAAQIAGVVKCASDYDYKVQARSGGHSFGNYGLGGADGAVVVDMKHFTQFSMDDETYEAVIGPGTTLNDVDIELYNNGKRAMAHGVCPTIKTGGHFTIGGLGPTARQWGLALDHVEEVEVVLANSSIVRASNTQNQDVFFAVKGAAANFGIVTEFKVRTEPAPGLAVQYSYTFNLGSTAEKAQFVKDWQSFISAKNLTRQFYNNMMIFDGDIILEGLFFGSKEQYDALGLEDHFAPKNPGNILVLTDWLGMVGHALEDTILKLVGNTPTWFYAKSLGFRQDTLIPSAGIDEFFEYIANHTAGTPAWFVTLSLEGGAINDVAEDATAYAHRDVLFWVQLFMVNPVGPISDTTYEFTDGLYDVLARAVPESVGHAYLGCPDPRMEDAQQKYWRTNLPRLQELKEELDPKNTFHHPQGVMPA,higher,58061.40,11245.27,3389.10,79.87,15.47,4.66,4972.60,0.00,2989.22,higher,62.46,0.00,37.54
t865737 (protein) MGNTTSIAGRDCLISALGGNSALAVFPNELLWTADVHEYNLNLPVTPAAITYPETAAQIAGIVKCASDYDYKVQARSGGHSFGNYGLGGADGAVVVDMKHFTQFSMDDETYEAVIGPGTTLNDVDIELYNNGKRAMAHGVCPTIKTGGHFTIGGLGPTARQWGLALDHVEEVEVVLANSSIVRASNTQNQDVFFAVKGAAANFGIVTEFKVRTEPAPGLAVQYSYTFNLGSTAEKAQFVKDWQSFISAKNLTRQFYNNMVIFDGDIILEGLFFGSKEQYDALGLEDHFAPKNPGNILVLTDWLGMVGHALEDTILKLVGNTPTWFYAKSLGFRQDTLIPSAGIDEFFEYIANHTAGTPAWFVTLSLEGGAINDVAEDATAYAHRDVLFWVQLFMVNPVGPISDTTYEFTDGLYDVLARAVPESVGHAYLGCPDPRMEDAQQKYWRTNLPRLQELKEELDPKNTFHHPQGVMPA,higher,53771.53,10699.35,2873.74,79.85,15.89,4.27,4271.01,0.00,2136.23,higher,66.66,0.00,33.34
t865744 (protein) MGNTTSIAGRDCLISALGGNSALAVFPNELLWTADVHEYNLNLPVTPAAITYPETAAQIAGVVKCASDYDYKVQARSGGHSFGNYGLGGADGAVVVDMKHFTQFSMDDETYEAVIGPGTTLNDVDIELYNNGKRAMAHGVCPTIKTGGHFTIGGLGPTARQWGLALDHVEEVEVVLANSSIVRASNTQNQDVFFAVKGAAANFGIVTEFKVRTEPAPGLAVQYSYTFNLGSTAEKAQFVKDWQSFISAKNLTRQFYNNMFIFDGDIILEGLFFGSKEQYDALGLEDHFAPKNPGNILVLTDWLGMVGHALEDTILKLVGNTPTWFYAKSLGFRQDTLIPSAGIDEFFEYIANHTAGTPAWFVTLSLEGGAINDVAEDATAYAHRDVLFWVQLFMVNPVGPISDTTYEFTDGLYDVLARAVPESVGHAYLGCPDPRMEDAQQKYWRTNLPRLQELKEELDPKNTFHHPQGVMPA,higher,44305.26,7187.94,2369.76,82.26,13.34,4.40,3752.20,0.00,2162.61,higher,63.44,0.00,36.56
t865717 (protein) MGNTTSIAGRDCLISALGGNSALAVFPNELLWTADVHEYNLNLPVTPAAITYPETAAQIAGVVKCASDYDYKVQARSGGHSFGNYGLGGADGAVVVDMKHFTQFSMDDETYVAVIGPGTTLSDVDIELYNNGKRAMAHGVCPTIKTGGHFTIGGLGPTARQWGLALDHVEEVEVVLANSSIVRASNTQNQDVFFAVKGAAANFGIVTEFKVRTEPAPGLAVQYSYTFNLGSTAEKAQFVKDWQSFISAKNLTRQFYNNMVIFDGDIILEGLFFGSKEQYDALGLEDHFAPKNPGNILVLTDWLGMVGHALEDTILKLVGNTPTWFYAKSLGFRQDTLIPSAGIDEFFEYIANHTAGTPAWFVTLSLEGGAINDVAEDATAYAHRDVLFWVQLFMVNPVGPISDTTYEFTDGLYDVLARAVPESVGHAYLGCPDPRMEDAQQKYWRTNLPRLQELKEELDPKNTFHHPQGVMPA,higher,44204.43,9698.33,2648.36,78.17,17.15,4.68,3668.51,0.00,1721.38,higher,68.06,0.00,31.94
"t865746 (protein, expressed in S. cerevisiae strain) MGNTTSIAGRDCLISALGGNSALAVFPNELLWTADVHEYNLNLPVTPAAITYPETAAQIAGVVKCASDYDYKVQARSGGHSFGNYGLGGADGAVVVDMKHFTQFSMDDETYEAVIGPGTTLNDVDIELYNNGKRAMAHGVCPTIKTGGHFTIGGLGPTARQWGLALDHVEEVEVVLANSSIVRASNTQNQDVFFAVKGAAANFGIVTEFKVRTEPAPGLAVQYSYTFNLGSTAEKAQFVKDWQSFISAKNLTRQFYNNMVIFDGDIILEGLFFGSKEQYDALGLEDHFAPKNPGNILVLTDWLGMVGHALEDTILKLVGNTPTWFYAKSLGFRQDTLIPSAGIDEFFEYIANHTAGTPAWFVTLSLEGGAINDVAEDATAYAHRDALFWVQLFMVNPVGPISDTTYEFTDGLYDVLARAVPESVGHAYLGCPDPRMEDAQQKYWRTNLPRLQELKEELDPKNTFHHPQGVMPA",higher,49195.03,9456.09,2882.16,79.95,15.37,4.68,4751.98,0.00,2061.14,higher,69.75,0.00,30.25
